The source of these data is US20100310509A1 (published 2010).

Assay [1] has as its target T1, soluble gp130 (R&D Systems # 228-GP-050/CF) (UniProt P40189 23-619, limits assumed).
T1 construct: extracellular domain; Bought
T1 sequence (looked up): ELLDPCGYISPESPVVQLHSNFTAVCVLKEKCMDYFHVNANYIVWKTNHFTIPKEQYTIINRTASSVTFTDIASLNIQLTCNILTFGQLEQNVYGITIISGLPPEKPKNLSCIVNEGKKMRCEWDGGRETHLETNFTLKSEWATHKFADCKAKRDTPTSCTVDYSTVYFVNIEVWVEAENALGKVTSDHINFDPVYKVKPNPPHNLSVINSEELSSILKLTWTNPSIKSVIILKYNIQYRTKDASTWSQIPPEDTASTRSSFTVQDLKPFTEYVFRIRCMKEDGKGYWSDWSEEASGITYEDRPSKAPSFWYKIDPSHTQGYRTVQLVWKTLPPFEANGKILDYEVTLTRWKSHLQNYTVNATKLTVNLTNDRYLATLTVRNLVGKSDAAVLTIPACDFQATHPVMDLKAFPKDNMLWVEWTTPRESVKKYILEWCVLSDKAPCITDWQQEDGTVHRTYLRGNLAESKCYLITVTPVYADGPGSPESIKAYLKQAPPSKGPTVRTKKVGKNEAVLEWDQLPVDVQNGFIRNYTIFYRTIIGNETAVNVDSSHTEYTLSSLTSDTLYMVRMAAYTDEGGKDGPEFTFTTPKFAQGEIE
As to the kind of experiment: SPR, ratio of KD values. Here is the method:
A concentration series of soluble LIFR (# 249-LR-050/CF, R&D Systems, Minneapolis, Minn.), soluble OSMR (# 4389-OR-50, R&D Systems, Minneapolis, Minn.) or soluble gp130 (# 228-GP-050/CF, R&D Systems, Minneapolis, Minn.) in running buffer (10 mM HEPES pH 7.4, 150 mM NaCl, 3.4 mM EDTA, 0.005% Tween-20) were injected over both channels at a flow rate of 25 μl/min. Following a dissociation period of 3 minutes, the surfaces were regenerated by injecting 10 mM NaOH for 30 seconds. Rate constants for association (kₐ) and dissociation (kd) rates were derived by global analysis of the response curves fit to a 1:1 kinetic model (Equations 1 and 2) using QDat software (BioLogic Software, Ltd. Knoxville Tenn. and Nomadics, Inc. Stillwater, Okla.) using 1:1 stoichiometry.
Reducing the size of the BC loop improves OSM's affinity towards LIFR and OSMR. […] To directly measure the binding kinetics of these ligand-receptor interactions, surface plasmon resonance (SPR) was used. The cytokines (LIF, OSM-WT, OSM-M1 and OSM-M2) were immobilized on the sensor chip surface, while recombinant soluble receptors were used as the analytes (FIG. 11).
In general terms: In SPR one partner is held on a chip, and binding of the other changes the refractive index at the surface.

The target in assay [2] is T2, soluble human OSMR (Oncostatin M receptor) (human, UniProt Q99650 28-740).
T2 construct: extracellular domain; Bought; also called soluble OSMR
T2 sequence (looked up): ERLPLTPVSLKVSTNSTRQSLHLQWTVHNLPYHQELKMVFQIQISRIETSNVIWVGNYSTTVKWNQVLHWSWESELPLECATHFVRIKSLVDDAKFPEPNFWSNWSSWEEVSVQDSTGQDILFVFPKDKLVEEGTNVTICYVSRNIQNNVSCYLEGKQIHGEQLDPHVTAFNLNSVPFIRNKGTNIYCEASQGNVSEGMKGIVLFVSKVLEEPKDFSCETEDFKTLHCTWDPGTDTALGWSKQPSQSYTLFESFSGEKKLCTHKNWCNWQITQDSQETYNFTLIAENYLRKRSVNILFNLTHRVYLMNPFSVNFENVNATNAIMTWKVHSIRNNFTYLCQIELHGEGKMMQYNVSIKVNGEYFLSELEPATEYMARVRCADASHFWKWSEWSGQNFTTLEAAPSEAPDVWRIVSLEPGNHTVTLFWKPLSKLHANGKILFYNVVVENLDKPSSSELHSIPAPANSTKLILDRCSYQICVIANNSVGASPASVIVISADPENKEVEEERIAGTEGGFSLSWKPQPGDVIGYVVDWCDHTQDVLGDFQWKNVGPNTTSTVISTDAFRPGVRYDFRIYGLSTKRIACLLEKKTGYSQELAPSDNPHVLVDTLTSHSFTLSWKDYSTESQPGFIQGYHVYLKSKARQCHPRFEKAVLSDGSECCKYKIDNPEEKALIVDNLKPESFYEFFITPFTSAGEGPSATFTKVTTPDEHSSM
As to the kind of experiment: SPR (SensiQ), OSM-M2 immobilised, soluble OSMR injected (150nM, 100nM, 50nM, 25nM, 10nM, 5nM). Here is the method:
(§1) Surface Plasmon Resonance (SPR): Kinetic parameters of the interactions between receptor domains and the cytokines LIF, OSM-WT, OSM-M1 or OSM-M2 were analyzed by SPR using the SENSIQ® system (ICX Technologies, Oklahoma City, Okla.) as described by the manufacturer protocol. Briefly, a carboxyl sensor with two channels was installed in SENSIQ® and allowed to thermally equilibrate for about 15 minutes. The channels were initially cleaned with a 3 minute injection of 0.1 M HCl. An activation solution of 2 mM 1-Ethyl-3-[3-dimethylaminopropyl]carbodiimide hydrochloride (EDC) and 0.5 mM N-hydroxysulfo succinimide (NHS) was prepared in deionized water immediately before injection. Activation solution was injected over both channels for approximately 3 minutes followed by a 10 minute injection of 50 μg/mL cytokine (LIF, OSM-WT, OSM-M1 or OSM-M2) in 10 mM acetate buffer, pH 5.0, over channel 1. […] Unreacted NHS esters were capped with a 3 minute injection of 1 M ethanolamine, pH 8.0, over both channels. […] A concentration series of soluble LIFR (# 249-LR-050/CF, R&D Systems, Minneapolis, Minn.), soluble OSMR (# 4389-OR-50, R&D Systems, Minneapolis, Minn.) or soluble gp130 (# 228-GP-050/CF, R&D Systems, Minneapolis, Minn.) in running buffer (10 mM HEPES pH 7.4, 150 mM NaCl, 3.4 mM EDTA, 0.005% Tween-20) were injected over both channels at a flow rate of 25 μl/min. […]

The target of assay [3] is T2, soluble human OSMR (Oncostatin M …). As to the kind of experiment: SPR (SensiQ), OSM-M1 immobilised, soluble OSMR injected (150nM, 100nM, 50nM, 25nM, 10nM, 5nM). On the procedure:
as §1

B1: OSM-WT ('AGA' modified human Oncostatin M, referred to as wild-type OSM) (ligand)
chain: AAIGSCSKEYRVLLGQLQKQTDLMQDTSRLLDPYIRIQGLDVPKLREHCRERPGAFPSEETLRGLGRRGFLQTLNATLGCVLHRLADLEQRLPKAQDLERSGLNIEDLEKLQMARPNILGLRNNIYCMAQLLDNSDTAEPTKAGAGASQPPTPTPASDAFQRKLEGCRFLHGYHRFMHSVGRVFSKWGESPN
notes: also called hOSM with AGA modification; not shown: N-terminal FLAG tag left after thrombin removal of GST
Take B1: the “fold higher affinity than towards LIFR” value in assay [1] stood at 2 fold.

B2: OSM-M2 (OSM with BC loop truncated from 12 to 4 amino acids) (ligand)
chain: AAIGSCSKEYRVLLGQLQKQTDLMQDTSRLLDPYIRIQGLDVPKLREHCRERPGAFPSEETLRGLGRRGFLQTLNATLGCVLHRLADLEQRLGGGNIEDLEKLQMARPNILGLRNNIYCMAQLLDNSDTAEPTKAGAGASQPPTPTPASDAFQRKLEGCRFLHGYHRFMHSVGRVFSKWGESPN
notes: Made from the 'AGA' modified OSM template; lacks the thrombin site; not shown: N-terminal FLAG tag left after thrombin removal of GST
Regarding B2, the binding result in assay [2] is recorded as “no binding (tested: 150 nM)”.

B3: OSM-M1 (OSM with BC loop truncated from 12 to 7 amino acids) (ligand)
chain: AAIGSCSKEYRVLLGQLQKQTDLMQDTSRLLDPYIRIQGLDVPKLREHCRERPGAFPSEETLRGLGRRGFLQTLNATLGCVLHRLADLEQRLGAPSGLNIEDLEKLQMARPNILGLRNNIYCMAQLLDNSDTAEPTKAGAGASQPPTPTPASDAFQRKLEGCRFLHGYHRFMHSVGRVFSKWGESPN
notes: as for B2
As to B3, in assay [3], the binding result was “no binding (tested: 150 nM)”.
